What was measured:
[1] = target: rCpsB-His (Streptococcus suis); experiment: SPR
[2] = target: CcpS, as crystallised (Streptococcus suis); experiment: crystal structure; sitting-drop vapour diffusion at 277 K; 0.1 M Tris-HCl pH 8.0, 15% ethanol; 1.6 Å; molecular replacement with IreB (PDB 5US5)
[3] = target: T1, CpsB (rCpsB) (Streptococcus suis, UniProt Q9X4U8); experiment: colorimetric phosphatase assay, absorbance […] nm; type: biochemical; settings: 50 nM enzyme, 16 uM pNPP, 1 mM MnCl2, 20 mM Tris pH 8.0, 150 mM NaCl, 37 °C
T1 construct: gene cps2D; rs02785 in pET-28a, His-tag, expressed in E. coli BL21(DE3), HisTrap purified; capsule locus tyrosine phosphatase (PHP type, Mn-dependent)

rCcpS-T4VT7V (natural protein)
fold higher affinity than rCcpS-T4ET7E [1]: > 10 fold

CcpS, as crystallised (natural protein)
stoichiometry N [2]: 2

O=[N+]([O-])c1ccc(OP(=O)(O)O)cc1 [pNPP, p-nitrophenyl phosphate]
relative activity [3]: Colorimetric phosphatase assays of CpsB activity were performed using p-nitrophenyl phosphate (pNPP)
